The values below come from PMC6513997, “PFA ependymoma-associated protein EZHIP inhibits PRC2 activity through a H3 K27M-like mechanism” (Nature Communications, 2019).

Primed or numbered codes have the meaning given here. Where no end group is shown, it is not given here. Biotin′ = not defined here

The target of test [1] is recombinant PRC2 purified from SF9 cells (EZH2, SUZ12, EED, RBBP4) (human, UniProt Q15910 1-746; Q15022 1-739; O75530 1-441; Q09028 1-425). The test is described as follows: cell-based or functional assay.
Test [2] deals with native PRC2 purified from HeLa cells expressing FLAG-tagged EZH2 ( | human (endogenous in HeLa), UniProt Q15910 1-746). Put plainly: steady-state enzyme kinetics (inhibition of methyltransferase activity); increasing oligonucleosome substrate with PRC2, SAM and varying EZHIP; Michaelis-Menten and Lineweaver-Burk curves fitted with competitive mode of inhibition. The note with it: both partners purified.
native PRC2 purified from HeLa cells expressing FLAG-tagged EZH2, sequence (Q15910 whole entry, chain 1 of 4): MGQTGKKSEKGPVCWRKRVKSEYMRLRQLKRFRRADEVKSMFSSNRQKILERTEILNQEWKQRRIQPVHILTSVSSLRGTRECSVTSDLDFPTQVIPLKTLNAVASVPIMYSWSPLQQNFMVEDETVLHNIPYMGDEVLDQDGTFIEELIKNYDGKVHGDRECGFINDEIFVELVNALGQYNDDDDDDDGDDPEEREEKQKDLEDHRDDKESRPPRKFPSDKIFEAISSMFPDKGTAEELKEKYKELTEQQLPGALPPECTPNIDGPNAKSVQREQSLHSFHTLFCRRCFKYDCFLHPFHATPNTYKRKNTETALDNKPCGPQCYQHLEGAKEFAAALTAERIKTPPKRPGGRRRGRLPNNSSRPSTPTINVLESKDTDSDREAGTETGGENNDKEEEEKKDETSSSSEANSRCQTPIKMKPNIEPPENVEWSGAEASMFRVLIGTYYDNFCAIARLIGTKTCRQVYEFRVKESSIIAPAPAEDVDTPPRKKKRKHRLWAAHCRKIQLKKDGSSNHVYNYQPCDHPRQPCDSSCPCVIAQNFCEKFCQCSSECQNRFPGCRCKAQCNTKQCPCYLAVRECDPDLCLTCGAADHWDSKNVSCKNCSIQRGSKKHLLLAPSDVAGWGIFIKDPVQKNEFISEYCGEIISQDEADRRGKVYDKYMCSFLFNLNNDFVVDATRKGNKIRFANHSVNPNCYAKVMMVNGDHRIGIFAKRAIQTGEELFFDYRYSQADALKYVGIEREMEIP
native PRC2 purified from HeLa cells expressing FLAG-tagged EZH2, sequence (Q15022 whole entry, chain 2 of 4, further chain): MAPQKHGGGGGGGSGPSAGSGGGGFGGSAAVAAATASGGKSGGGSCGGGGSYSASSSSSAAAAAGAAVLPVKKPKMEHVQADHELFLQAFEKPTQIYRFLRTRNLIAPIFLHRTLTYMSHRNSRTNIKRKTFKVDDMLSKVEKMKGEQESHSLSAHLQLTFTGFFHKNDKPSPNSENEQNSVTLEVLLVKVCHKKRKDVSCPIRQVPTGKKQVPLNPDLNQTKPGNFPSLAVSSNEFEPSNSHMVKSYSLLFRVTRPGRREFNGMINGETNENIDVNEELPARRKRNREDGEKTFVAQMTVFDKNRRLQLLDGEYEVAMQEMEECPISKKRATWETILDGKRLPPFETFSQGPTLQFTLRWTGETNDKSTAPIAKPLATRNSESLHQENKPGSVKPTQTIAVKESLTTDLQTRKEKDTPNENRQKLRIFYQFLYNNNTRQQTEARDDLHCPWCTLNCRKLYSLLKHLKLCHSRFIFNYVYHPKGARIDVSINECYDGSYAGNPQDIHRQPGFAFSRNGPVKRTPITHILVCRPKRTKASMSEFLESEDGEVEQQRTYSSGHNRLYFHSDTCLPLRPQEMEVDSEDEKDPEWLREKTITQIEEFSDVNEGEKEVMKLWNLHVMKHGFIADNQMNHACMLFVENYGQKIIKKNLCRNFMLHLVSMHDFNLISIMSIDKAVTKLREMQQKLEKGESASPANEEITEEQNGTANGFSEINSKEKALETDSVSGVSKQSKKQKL
native PRC2 purified from HeLa cells expressing FLAG-tagged EZH2, sequence (O75530 2-441, chain 3 of 4, further chain): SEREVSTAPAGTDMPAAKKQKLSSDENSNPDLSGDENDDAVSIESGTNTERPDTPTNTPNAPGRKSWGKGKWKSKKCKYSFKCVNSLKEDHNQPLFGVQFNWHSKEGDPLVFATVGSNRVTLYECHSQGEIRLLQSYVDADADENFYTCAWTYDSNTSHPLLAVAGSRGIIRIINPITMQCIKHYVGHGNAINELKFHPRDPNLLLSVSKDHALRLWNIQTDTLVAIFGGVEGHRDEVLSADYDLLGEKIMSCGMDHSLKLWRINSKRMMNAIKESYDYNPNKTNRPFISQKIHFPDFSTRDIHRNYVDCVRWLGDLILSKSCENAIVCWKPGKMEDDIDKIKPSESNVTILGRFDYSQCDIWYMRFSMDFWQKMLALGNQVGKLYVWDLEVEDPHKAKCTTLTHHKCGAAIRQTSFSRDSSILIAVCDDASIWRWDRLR
native PRC2 purified from HeLa cells expressing FLAG-tagged EZH2, sequence (Q09028 2-425, chain 4 of 4, further chain): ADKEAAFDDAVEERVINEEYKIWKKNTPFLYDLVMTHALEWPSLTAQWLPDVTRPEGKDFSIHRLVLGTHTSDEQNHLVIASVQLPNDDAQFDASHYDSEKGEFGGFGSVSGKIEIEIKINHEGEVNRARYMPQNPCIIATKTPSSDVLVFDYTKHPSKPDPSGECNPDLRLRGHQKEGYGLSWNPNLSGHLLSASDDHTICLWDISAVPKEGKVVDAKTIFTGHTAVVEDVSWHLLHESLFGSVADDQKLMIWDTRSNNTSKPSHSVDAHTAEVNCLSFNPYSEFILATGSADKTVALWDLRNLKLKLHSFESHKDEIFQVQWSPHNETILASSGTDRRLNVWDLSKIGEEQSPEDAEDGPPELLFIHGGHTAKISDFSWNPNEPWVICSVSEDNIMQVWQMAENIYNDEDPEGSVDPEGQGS

recombinant PRC2 purified from SF9 cells (EZH2, SUZ12, EED, RBBP4), sequence (Q15910 whole entry, chain 1 of 4): as the sequence (Q15910 whole entry, chain 1 of 4) above
recombinant PRC2 purified from SF9 cells (EZH2, SUZ12, EED, RBBP4), sequence (Q15022 whole entry, chain 2 of 4): as the sequence (Q15022 whole entry, chain 2 of 4, further chain) above
recombinant PRC2 purified from SF9 cells (EZH2, SUZ12, EED, RBBP4), sequence (O75530 whole entry, chain 3 of 4): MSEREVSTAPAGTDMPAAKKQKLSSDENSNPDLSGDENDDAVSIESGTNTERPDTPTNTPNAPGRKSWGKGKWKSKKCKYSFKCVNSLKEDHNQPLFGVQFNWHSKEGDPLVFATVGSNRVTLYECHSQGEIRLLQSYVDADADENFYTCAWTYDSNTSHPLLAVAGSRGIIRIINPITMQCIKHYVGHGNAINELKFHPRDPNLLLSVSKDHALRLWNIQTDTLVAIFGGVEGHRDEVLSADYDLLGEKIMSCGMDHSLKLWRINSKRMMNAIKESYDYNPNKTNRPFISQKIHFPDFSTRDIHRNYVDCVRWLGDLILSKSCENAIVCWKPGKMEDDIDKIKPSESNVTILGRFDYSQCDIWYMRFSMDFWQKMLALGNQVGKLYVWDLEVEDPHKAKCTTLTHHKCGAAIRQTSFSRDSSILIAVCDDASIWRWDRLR
recombinant PRC2 purified from SF9 cells (EZH2, SUZ12, EED, RBBP4), sequence (Q09028 whole entry, chain 4 of 4): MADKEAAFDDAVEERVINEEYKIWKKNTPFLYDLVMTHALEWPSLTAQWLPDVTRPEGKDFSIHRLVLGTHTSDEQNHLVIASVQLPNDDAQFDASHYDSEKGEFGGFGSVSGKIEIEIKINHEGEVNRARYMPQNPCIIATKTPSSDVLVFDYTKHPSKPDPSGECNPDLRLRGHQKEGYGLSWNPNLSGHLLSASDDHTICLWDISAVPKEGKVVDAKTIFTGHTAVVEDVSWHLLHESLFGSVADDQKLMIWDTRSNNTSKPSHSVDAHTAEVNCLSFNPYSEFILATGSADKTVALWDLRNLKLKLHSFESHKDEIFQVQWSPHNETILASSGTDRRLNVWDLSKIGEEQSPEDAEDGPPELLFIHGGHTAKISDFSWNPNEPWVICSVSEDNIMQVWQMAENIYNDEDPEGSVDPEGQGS

B1: biotinylated EZHIP (403-422) peptide, K27M-like peptide (peptide)
peptide: AVRMRASSPSPPGRFFLPIPK-{Biotin′}
modifications: not fully specified (residue 21); printed as AVRMRASSPSPPGRFFLPIPK-biotin
In the case of B1, in test [1], the “IC50 of PRC2 methyltransferase activity on H3 18-37 peptide, EZHIP KLP titrated, without H3K27me3 stimulatory peptide” value stood at 35 µM and the “IC50 of rPRC2-Ezh2 methyltransferase activity on H3 (18-37) peptide substrate, KLP (403-423) peptide titrated, with H3K27me3 stimulatory peptide” value is 4.1 µM.

B2: recombinant EZHIP purified from SF9 cells (natural protein)
chain: MATQSDMEKEQKHQQDEGQGGLNNETALASGDACGTGNQDPAASVTTVSSQASPSGGAALSSSTAGSSAAAATSAAIFITDEASGLPIIAAVLTERHSDRQDCRSPHEVFGCVVPEGGSQAAVGPQKATGHADEHLAQTKSPGNSRRRKQPCRNQAAPAQKPPGRRLFPEPLPPSSPGFRPSSYPCSGASTSSQATQPGPALLSHASEARPATRSRITLVASALRRRASGPGPVIRGCTAQPGPAFPHRATHLDPARLSPESAPGPARRGRASVPGPARRGCDSAPGPARRGRDSAPVSAPRGRDSAPGSARRGRDSAPGPALRVRTARSDAGHRSTSTTPGTGLRSRSTQQRSALLSRRSLSGSADENPSCGTGSERLAFQSRSGSPDPEVPSRASPPVWHAVRMRASSPSPPGRFFLPIPQQWDESSSSSYASNSSSPSRSPGLSPSSPSPEFLGLRSISTPSPESLRYALMPEFYALSPVPPEEQAEIESTAHPATPPEP
For orientation: Ki means the dissociation constant of the complex between target and ligand, obtained from inhibition or displacement. Higher therefore signals a looser hold on the target. As for B2, the affinity in test [2], expressed as Ki, was 0.00222 µM.

B3: biotinylated H3.3 K27M (18-37) peptide (peptide)
peptide: KQLATKAARMSAPSTGGVKKYK
modifications: not fully specified; biotin on the added C-terminal K
As for B3, the “IC50 of rPRC2-Ezh2 methyltransferase activity on H3 (18-37) peptide substrate, H3 K27M (18-37) peptide titrated, with H3K27me3 stimulatory peptide” value in test [1] was found to be 27.9 µM.
